In this assay the target is T1, human IL-1α (human, UniProt P01583 113-271).
T1 construct: also called IL-1alpha; hIL-1α
T1 sequence (looked up): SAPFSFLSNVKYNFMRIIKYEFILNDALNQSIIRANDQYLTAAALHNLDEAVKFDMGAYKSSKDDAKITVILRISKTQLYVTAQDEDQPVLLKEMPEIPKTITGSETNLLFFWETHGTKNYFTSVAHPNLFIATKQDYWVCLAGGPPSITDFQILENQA
Nature of the assay: Table 62 IC50; RBA presumed.

The source of these data is patent US20090291081A1 (AbbVie / Abbott, published 2009).

Numbering of substitutions follows the chain as printed. Where only a bound is given, the exact number is not on record here.

B1: ABT1-132 (other)
VL: DIQMTQSPSSLSASVGDRVTITCRASQNIATALLWYQQKPGKAPRLLIYDSSQLQSGVPSRFSGSGSGTDFTLTISSLQPEDFATYYCQQMYWVPFTFGQGTKVEIKR
notes: VK dAb
Regarding B1, the IC50 was found to be 300 nM.

B2: ABT1-141-14 (other)
VL: B1 VL with N28W, A30Q, T31K, A32Q, L34A, D50S, Q53Y, M91N, Y92L, W93S
notes: VK dAb
B2 registered an IC50 of 10 nM.

B3: ABT1-123 (other)
VL: DIQMTQSPSSLSASVGDRVTITCRASQSIWTELKWYQQKPGKAPKLLIYGASLLQSGVPSRFSGSGSGTDFTLTISSLQPEDFATYYCQQFAYHPHTFGQGTKVEIKR
notes: VK dAb
As to B3, the IC50 was greater than 500 nM.

B4: ABT1-139 (other)
VH: EVQLLESGGGLVQPGGSLRLSCAASGFTFSDYTMIWVRQAPGKGLEWVSSISARGWGTYYADSVKGRFTISRDNSKNTLYLQMNSLRAEDTAVYYCAKGSPQLVLPFDYWGQGTLVTVSS
notes: VH dAb
For the molecule B4, inhibition was half-maximal at 80 nM (IC50).

B5: ABT1-130 (other)
VL: DIQMTQSPSSLSASVGDRVTITCRASQEIGLWLSWYQQKSGKAPKLLIYRHSSSQSGVPSRFSGSGSGTDFTLTISSLQPEDFATYYCQQTYKAPFTFGQGTKVEIKR
notes: VK dAb
B5 returned an IC50 of 300 nM. Compared with the last molecule, the IC50 is about 3.8-fold higher.

B6: ABT1-141-1 (other)
VL: DIQMTQSPSSLSASVGDRVTITCRASQWIQKQLAWYQQKPGKAPKLLIYSGSWLQSGVPSRFSGSGSGTDFTLTISSLQPEDFATYYCQQHLRVPFTLGQGTKVEIKR
notes: VK dAb
B6 gave an IC50 greater than 100 nM.

B7: ABT1-141-16 (other)
VL: B6 VL with T20A, G51S, W53Y, Q90H, L98F
notes: VK dAb
In turn, B7 showed an IC50 of 20 nM.

B8: ABT1-141-23 (other)
VL: B6 VL with G51S, W53Y, H91Q, L92M, R93Q, V94P, F96R, L98F
notes: VK dAb
B8 yielded an IC50 of 80 nM.

B9: ABT1-141-9 (other)
VL: B6 VL with M4V, G51S, L98F
notes: VK dAb
The molecule B9 came in with an IC50 of 10 nM.

B10: ABT1-141-17 (other)
VL: B6 VL with Q38L, G51S, W53Y, L98F
notes: VK dAb
On to B10, for which the midpoint of inhibition, the IC50, lay at 30 nM.

B11: ABT1-141-18 (other)
VL: B6 VL with A43V, G51S, W53Y, L98F
notes: VK dAb
With B11, the IC50 turned out to be 80 nM.

B12: ABT1-141-46 (other)
VL: B6 VL with G51S, W53H, F96M, L98F, E105V
notes: VK dAb
B12 returned an IC50 of 3 nM. This IC50 lies about 27-fold lower than the previous one.

B13: ABT1-141-8 (other)
VL: B6 VL with Q38L, G51S, L98F
notes: VK dAb
Turning to B13, half-maximal inhibition (IC50) required 10 nM.

B14: ABT1-141-19 (other)
VL: B6 VL with G51S, P59R, L98F
notes: VK dAb
B14 had an IC50 of 50 nM.

B15: ABT1-141-22 (other)
VL: B6 VL with G51S, W53Y, H91Q, L92M, R93A, V94P, F96R, L98F
notes: VK dAb
B15 showed an IC50 of 30 nM.

B16: ABT1-141-21 (other)
VL: B6 VL with G51S, W53Y, H91Q, L92M, R93S, V94S, F96R, L98F
notes: VK dAb
As to B16, the concentration for half-maximal inhibition (IC50) worked out at 60 nM.

B17: ABT1-141-6 (other)
VL: B6 VL with G51S, W53Y, Q89L, L98F
notes: VK dAb
Take B17: the IC50 came out at 20 nM.

B18: ABT1-141-3 (other)
VL: B6 VL with A43T, G51Q, W53H, L98F
notes: VK dAb
In turn, B18 showed an IC50 of 80 nM. This IC50 is about 4-fold higher than that of the molecule before.

B19: ABT1-141-7 (other)
VL: B6 VL with V19I, Q38L, G51S, W53Y, L98F
notes: VK dAb
In turn, B19 showed an IC50 of 10 nM.
